Common to all, as to details: both partners purified
Assay [1] addresses T1, NFAST (fragment 1–114 of FAST).
T1 construct: N-terminal fragment (residues 1-114) of the engineered fluorogenic reporter FAST, split between Ser 114 and Gly 115; numbers count on: FAST; Cloned in pET28a with NheI and XhoI; Surmise: the His tag is the N-terminal one of the vector; no cleavage is told; also called recombinantly purified NFAST; source: E. coli Rosetta (DE3) pLysS, purified (Ni-NTA, PD-10 desalting)
T1 chain: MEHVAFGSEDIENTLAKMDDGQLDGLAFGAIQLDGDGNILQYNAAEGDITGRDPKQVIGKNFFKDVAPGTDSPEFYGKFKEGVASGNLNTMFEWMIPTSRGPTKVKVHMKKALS
Description: other fluorescence titration; synthetic CFASTn peptides (n = 8–11) and recombinant purified NFAST in the presence of fluorogen (10 µM HMBR; also HBR-3,5DOM); Spark 10M plate reader; one-site-specific binding fit; apparent.

Assay [2] deals with T2, CFAST11 (fragment 115-125 of FAST).
T2 construct: C-terminal fragment 115-125 of the engineered protein FAST; source: synthetic peptide, bought: Clinisciences, 98% purity
T2 peptide: Ac-GDSYWVFVKRV-NH2
Nature of the assay: other fluorescence titration; NFAST titrated onto 100 nM CFASTn in the presence of 10 µM HMBR; pH 7.4 phosphate buffered saline, 25 °C; excitation 480 nm, emission 540 nm; plate reader; one-site-specific binding fit; apparent.

The target in assay [3] is T3, CFAST9.
T3 construct: CFAST11 without its last two C-terminal residues; source: synthetic peptide, bought: Clinisciences, 98% purity
T3 peptide: Ac-GDSYWVFVK-NH2
Described as above.

Assay [4] deals with T4, CFAST10.
T4 construct: CFAST11 without its last C-terminal residue; source: synthetic peptide, bought: Clinisciences, 98% purity
T4 peptide: Ac-GDSYWVFVKR-NH2
The description is as above.

In a further assay the target is T5, CFAST8.
T5 construct: CFAST11 without its last three C-terminal residues; source: synthetic peptide, bought: Clinisciences, 98% purity
T5 peptide: Ac-GDSYWVFV-NH2
The assay is described as above.

In assay [5] the target is T2, CFAST11 (fragment 115-125 of FAST). Nature of the assay: other fluorescence titration; NFAST titrated onto 100 nM CFASTn in the presence of 10 µM HBR-3,5DOM; pH 7.4 phosphate buffered saline, 25 °C; excitation 520 nm, emission 600 nm; plate reader; one-site-specific binding fit; apparent.
For assay [6], the target named is T3, CFAST9. The description is as above.
Assay [7] has as its target T4, CFAST10. Described as above.

B1: CFAST10, synthetic peptide (peptide)
peptide: Ac-GDSYWVFVKR-NH2
notes: CFAST11 without its last C-terminal residue; numbers count on: FAST; source: synthetic peptide, bought: Clinisciences (98% purity)
Take B1: the binding result in assay [1] is “binds”.

B2: CFAST11 (fragment 115–125 of FAST), synthetic peptide (peptide)
peptide: Ac-GDSYWVFVKRV-NH2
notes: C-terminal fragment (residues 115-125) of the engineered reporter FAST; numbers count on: FAST; source: synthetic peptide, bought: Clinisciences (98% purity)
Turning to B2, in assay [1], the binding result is reported as “binds”.

B3: NFAST (fragment 1-114 of FAST, Fluorescence-Activating and absorption-Shifting Tag) (domain or fragment)
chain: MEHVAFGSEDIENTLAKMDDGQLDGLAFGAIQLDGDGNILQYNAAEGDITGRDPKQVIGKNFFKDVAPGTDSPEFYGKFKEGVASGNLNTMFEWMIPTSRGPTKVKVHMKKALS
notes: Cloned into pET28a by NheI and XhoI; also called Histag-NFAST; pAG209; source: E. coli Rosetta (DE3) pLysS, purified (Ni-NTA, PD-10 desalting into PBS)
As to B3, the Kd in assay [2] was 0.21 ± 0.05 µM; with CFAST9 [3], 5.7 ± 0.6 µM; in the assay with CFAST10 [4], 0.95 ± 0.08 µM; with CFAST8, 21 ± 4 µM; in assay [5] it was 1.4 ± 0.2 µM; with CFAST9 [6] it was 25 ± 1 µM. Further, the Kd with CFAST10 [7] was 6.2 ± 0.5 µM.
